The text below walks through data of PMC7611853 (Nature cell biology, 2021).

Changes are numbered by the printed parent chain. Names may count otherwise.

Data set [1] deals with the molecule itself. Description: negative-stain TEM, circular dichroism and amyloid-dye. (Circular dichroism is the unequal absorption of left and right circularly polarised light.)
The data set “centrifugation” deals with the molecule itself. Nature of the data set: centrifugation.

B1: Cdc19^WT (wild-type pyruvate kinase Cdc19, strep-tagged, recombinant) (enzyme, S. cerevisiae, UniProt P00549 1-500, looked up)
chain: MSRLERLTSLNVVAGSDLRRTSIIGTIGPKTNNPETLVALRKAGLNIVRMNFSHGSYEYHKSVIDNARKSEELYPGRPLAIALDTKGPEIRTGTTTNDVDYPIPPNHEMIFTTDDKYAKACDDKIMYVDYKNITKVISAGRIIYVDDGVLSFQVLEVVDDKTLKVKALNAGKICSHKGVNLPGTDVDLPALSEKDKEDLRFGVKNGVHMVFASFIRTANDVLTIREVLGEQGKDVKIIVKIENQQGVNNFDEILKVTDGVMVARGDLGIEIPAPEVLAVQKKLIAKSNLAGKPVICATQMLESMTYNPRPTRAEVSDVGNAILDGADCVMLSGETAKGNYPINAVTTMAETAVIAEQAIAYLPNYDDMRNCTPKPTSTTETVAASAVAAVFEQKAKAIIVLSTSGTTPRLVSKYRPNCPIILVTRCPRAARFSHLYRGVFPFVFEKEPVSDWTDDVEARINFGIEKAKEFGILKKGDTYVSIQGFKAGAGHSNTLQVSTV
For the protein B1, the binding result in data set [1] is “binds”.

B2: Cdc19^ΔFBP (Cdc19 point-mutant T403E unable to bind FBP, strep-tagged, recombinant) (enzyme, S. cerevisiae, UniProt P00549 1-500, looked up)
chain: B1 chain with T403E
As to B2, the binding result in the data set “centrifugation” was “binds”.
